Measurements taken from PMC5339894, “G196 epitope tag system: a novel monoclonal antibody, G196, recognizes the small, soluble peptide DLVPR with high affinity” (Scientific Reports, 2017).
Entries after “also recorded” stand apart in the source; their conditions may differ.

Assays:
[1] = tested on: FLAG-HA-Emerald GFP tagged with C-terminal G196-tag (FHG-G196); assay: Western blot analysis of HeLa cell extracts; assay type: cell-based, human
Source text: (§1) Short peptides and paired mAbs specific for the sequences of interest are powerful and irreplaceable tools for scientific research. To ascertain the possible versatility of G196-tag as a versatile fusion tag, we generated several human and yeast expression constructs in which the G196-tag was fused to reporter proteins. First, we expressed FLAG- and HA-tagged Emerald GFP (hereafter abbreviated FHG) as a reporter protein, C-terminally fused with a G196-tag (6P12, SDLVPRGSP) in HeLa cells.
(§2) Figure 5 Application of the G196 epitope tag system for scientific research. (a) Western blot and immunoprecipitation (IP) analysis of FLAG-HA-Emerald GFP (FHG) tagged with C-terminal G196-tag in HeLa cells using mAb G196. HeLa cells were transfected with FHG/pcDNA3 or FHG-G196/pcDNA3. After incubation for two days, the cells were lysed and subjected to Western blotting with anti-FLAG (M2) or G196 mAbs (left panel). These lysates were immunoprecipitated with anti-FLAG (M2) (lanes 7, 8) or G196 (lanes 9, 10) mAbs and subjected to Western blotting with anti-FLAG polyclonal antibody (right panel). (b) Immunofluorescence of GFP- and G196-tagged nuclear protein in HeLa cells using mAb G196. […] Protein extracts were separated by SDS-PAGE and detected with mAb G196 and anti-GFP polyclonal antibody (left panel). […] Asterisk indicates non-specific band also detected using the second Ab alone. […]

[2] = tested on: cellular proteins of HeLa cells; assay: Western blot cross-reaction with cellular proteins; assay type: cell-based, human; details: HeLa cell extracts, Western blot (lanes 3, 4)
Source text: as §1, §2

[3] = tested on: Atf1-G196-GFP; assay: Western blot analysis of fission yeast extracts; assay type: cell-based; details: C-terminally 3 × G196-tagged Atf1, mAb G196 1:2000
Source text: C-terminal tagging of the atf1 gene (Supplementary Fig. 1) was accomplished using the G196t2 primer. This primer contains a sequence homologous to a portion of the atf1 coding sequence, a sequence for 3 × G196-tag, and a sequence homologous to another primer, com5. In the first PCR step, two sequences flanking the translational stop codon of the atf1 gene were amplified with the primers t1 and G196t2, and with the primers t3 and t4, using the genomic DNA as a template. The GFP-kanMX cassette was also amplified with the primers com5 and com6, using pFA6a-GFP(S65T)-kanMX as a template. The three PCR products were fused together in the second PCR step with the primers t1 and t4 to produce a DNA fragment for homologous recombination.
Cells (1 × 10^8) growing exponentially in YES medium at 30 °C were harvested to obtain whole cell extracts as described elsewhere. Samples were resolved by SDS-PAGE on 7% gels, semi-dry blotted to PVDF membranes, and detected using an ECL detection system (PerkinElmer, Waltham, MA, USA). Mouse mAb G196 (1:2000) and anti-GFP rabbit polyclonal antibody (1:1000) were used as primary antibodies. HRP-conjugated goat anti-mouse antibody (1:5000, Rockland Immunochemicals) and anti-rabbit antibody (1:2000, Jackson ImmunoResearch Laboratories) were used as secondary antibodies.

[4] = tested on: Atf1-G196-GFP; assay: immunofluorescence of fission yeast cells; assay type: cell-based
Procedure: Yeast cells exponentially growing in YES medium at 30 °C were fixed with 3% formaldehyde and incubated at 18 °C for 30 min. After quenching with 250 mM glycine, the cells were washed with PBSEMS (PBS buffer with 1 mM EGTA, 1 mM MgSO4 and 1.2 M sorbitol), resuspended in PBSEMS containing 5 mg/mL Zymolyase 20T (07663-91, Nacalai Tesque) and 0.1% 2-mercaptoethanol, and incubated at 37 °C for 1 h. The cells were washed three times with PBSEMS and resuspended in PBSEMT (PBS with 1 mM EGTA, 1 mM MgSO4 and 1% Triton X-100) and incubated at room temperature for 30 sec. After washing three times with PBSEM (PBS with 1 mM EGTA and 1 mM MgSO4), the cells were incubated in PBSEMALM (PBS with 1 mM EGTA, 1 mM MgSO4, 0.1% sodium azide, 0.1 M L-lysine and 5% skim milk) for 30 min. The cells were resuspended in PBSEMALM containing G196 mAb (1:1000) and anti-GFP rabbit polyclonal antibody (1:1000). After overnight incubation at room temperature, cells were washed with PBSEMALM three times, then resuspended in PBSEMALM containing anti-mouse antibody conjugated with Alexa 594 (1:100) and anti-rabbit conjugated with Alexa 488 (1:100). After one-hour incubation, the cells were washed with PBSEMAL containing 5% skim milk three times and resuspended in PBS containing 0.1% sodium azide. The cell suspension was mixed with an equal amount of 1% low-melting point agarose with DAPI on glass plates.

[5] = tested on: N- and C-terminally G196-tagged protein; assay: detection of N- and C-terminally G196-tagged protein; details: this study and refs. 22 and 23

B1: mAb G196: mouse mAb (IgG1) raised against GST protein bacterially expressed using the pGEX-2T vector (antibody, V domains shown)
VH: QVKLQESGAELVKPGASVKLSCKASGYTFTNYWMHWVKLRPGQGFEWIGEINPSNGGSNYNEKFKRKATLTVDKSSSTAYMQLSSLTSEDSAVFYCSIWDSYFDYWGQGTTLTVSS
VL: NIVMTQSPKSMSMSVGERVTLTCKASENVVTYVSWYQQKPEQSPKLLIYGASNRYTGVPDRFTGSGSATDFTLTISSVQAEDLADYHCGQGYSYPYTFGGGTKLEIK
detection of FHG (without G196-tag) by Western blot ([1]; HeLa cells transfected with FHG (lane 3)): not detected
detection of FHG-G196 by Western blot ([1]; HeLa cells transfected with FHG-G196, two days (lanes 2, 4)): detected as a single band; also recorded: as a single band at the proper molecular weight
cross-reaction with cellular proteins [2]: did not cross-react with cellular proteins; also recorded: did not (cross-)react with cellular proteins
detection of Atf1 by Western blot [3]: detected the Atf1 protein
immunofluorescence recognition of Atf1 ([4]; G196- and GFP-tagged Atf1, mAb 1:1000): recognized G196- and GFP-tagged Atf1
immunofluorescence of Atf1 compared with anti-GFP polyclonal ([4]; versus polyclonal anti-GFP antibody): comparable to that of a polyclonal anti-GFP antibody
detection of N- and C-terminally tagged protein [5]: detected both N- and C-terminally G196-tagged protein
